Results from US20260191907A1 (INSTITUT CURIE, published 2026).

T1: Recombinant FGFR3 (G&P Biosciences) (UniProt P22607 23-375, limits assumed)
T1 construct: Immobilised on the SPR chip
T1 sequence (looked up): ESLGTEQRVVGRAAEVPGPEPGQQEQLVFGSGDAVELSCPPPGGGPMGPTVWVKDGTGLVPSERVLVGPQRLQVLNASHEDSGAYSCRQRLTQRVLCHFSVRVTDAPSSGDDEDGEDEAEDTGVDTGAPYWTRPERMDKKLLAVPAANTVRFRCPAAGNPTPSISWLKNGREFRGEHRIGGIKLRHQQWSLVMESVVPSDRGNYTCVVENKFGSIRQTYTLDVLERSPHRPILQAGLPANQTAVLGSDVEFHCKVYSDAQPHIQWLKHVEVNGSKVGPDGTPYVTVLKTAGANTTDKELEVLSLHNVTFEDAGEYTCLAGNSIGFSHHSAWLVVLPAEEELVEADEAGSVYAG

T2: Recombinant FGFR4 (G&P Biosciences) (human, UniProt P22455 22-369)
T2 construct: Bought protein; the SPR method says only 'Recombinant; also called rFGFR4; extracellular FGFR4
T2 sequence: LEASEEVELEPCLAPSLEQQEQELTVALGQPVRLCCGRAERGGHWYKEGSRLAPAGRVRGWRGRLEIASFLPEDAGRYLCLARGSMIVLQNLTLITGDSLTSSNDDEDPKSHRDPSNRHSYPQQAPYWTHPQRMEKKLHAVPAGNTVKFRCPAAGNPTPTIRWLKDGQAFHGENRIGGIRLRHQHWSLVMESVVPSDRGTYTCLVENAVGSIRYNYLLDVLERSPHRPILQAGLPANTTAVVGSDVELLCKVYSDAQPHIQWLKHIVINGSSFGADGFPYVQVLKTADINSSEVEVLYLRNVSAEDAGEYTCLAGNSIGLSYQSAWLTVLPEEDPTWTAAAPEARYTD


Experiments:
[1] = target: T1, Recombinant FGFR3 (G&P Biosciences); experiment: SPR, FGFR3 immobilised, nanobody as analyte at five concentrations
Method: (§1) Single cycle kinetics analysis was performed with the BIAcore® T200 instrument (GE Healthcare) on CMD200M sensor chips (XanTec bioanalytics GmbH) activated with a mixture of 300 mM NHS (N-hydroxysuccinimide) and 50 mM EDC (N-ethyl-N′-(dimethylaminopropyl) carbodiimide). Recombinant FGFR1, FGFR2, FGFR3 and FGFR4 (G&P Biosciences) were immobilized on the activated biosensors (800 to 12′000 RU; 1 RU=1 pg/mm²) followed by a blocking step with 1M ethanolamine. One flow channel per chip was used as a reference to provide background corrections. The nanobodies were injected at 5 different concentrations followed by a dissociation phase. Koff-rates were determined from a final dissociation step after the last injection. The measurements with FGFR4 were performed for each nanobody on freshly immobilized protein due to strong binding and incomplete dissociation from the surface. Immobilization flow rate was 5 μl/min and binding studies were performed at 30 μl/min. Binding parameters were determined with the heterogeneous ligand model fit of the BIAevaluation software. The black curves represent the measured data and red curves show the performed fit analysis.
To determine the binding affinity of the nanobodies to FGFR4, we performed surface plasmon resonance (SPR) spectroscopy with recombinant FGFR4. As already mentioned above, FGFR1 and FGFR2 are expressed on Rh4-FR4ko cells and flow cytometry analysis indicated no binding of the nanobodies to the cells. To further confirm FGFR4-specificity, we included also affinity measurements with recombinant FGFR1, FGFR2 and FGFR3. Nanobodies A8, B1, B5, F8, and mCh were injected in five different concentrations on a FGFR coated chip. Except for the negative control mCh, calculated KD values for FGFR4 binding were in the nano- and picomolar range (FIG. 3; Table 2). Affinity parameters could not be fitted with a 1:1 binding model and best fits were obtained with the heterogeneous ligand model of the BIAevaluation software resulting in two KD values for each candidate.

[2] = target: T2, Recombinant FGFR4 (G&P Biosciences); experiment: SPR (BIAcore T200), single cycle kinetics, FGFR4 amine-immobilised, nanobody as analyte, heterogeneous ligand model, component 2 (kon2)
Method: (§2) FIG. 3: Affinity determination of nanobodies to recombinant protein via surface plasmon resonance spectroscopy. Single cycle kinetics analysis was performed on immobilized FGFR4 through covalent amine binding on the dextran based sensor chip. The analytes A8, B1, B5, F8 and mCh were injected in 5 different concentrations followed by a dissociation phase. A final dissociation step was added after the last injection step to determine Koff rates for the KD calculations. The black curves represent the measured data and red curves show the fit analysis (heterogeneous ligand model) performed with the BIAevaluation software.
as §1
(§3) To determine the binding affinity of the nanobodies to FGFR4, we performed surface plasmon resonance (SPR) spectroscopy with recombinant FGFR4. As already mentioned above, FGFR1 and FGFR2 are expressed on Rh4-FR4ko cells and flow cytometry analysis indicated no binding of the nanobodies to the cells. To further confirm FGFR4-specificity, we included also affinity measurements with recombinant FGFR1, FGFR2 and FGFR3. Nanobodies A8, B1, B5, F8, and mCh were injected in five different concentrations on a FGFR coated chip.

[3] = target: T2, Recombinant FGFR4 (G&P Biosciences); experiment: SPR (BIAcore T200), single cycle kinetics, FGFR4 amine-immobilised, nanobody as analyte, heterogeneous ligand model, component 2 (KD2)
Method: as §2, §1, §3

binding result [1]	kon [2] [M⁻¹ s⁻¹]	Kd [3] [nM]	Binder
no binding	1.35e+06	4.14	F8 nanobody (anti-FGFR4 sdAb, Gimli library) (VHH, Recombinant nanobody of about 17 kDa; also called F8 sdAb; not shown: C-terminal Myc/6xHis-tag and an additional cysteine) VHH: EVQLVESGGGLVQPGGSLRLSCAASGTGYALDDMGWVRQAPGKGLEWVSAISDDESMADYYADSVKGRFTISRDNSKNTVYLQMNSLRAEDTAVYYCASYKEYKYQSGHHYFAYRGQGTLVTVSS
no binding	216000	4.6	B1 nanobody (anti-FGFR4 sdAb, NaLi-H1 library) (VHH, also called B1 sdAb; not shown: C-terminal Myc/6xHis-tag and an additional cysteine) VHH: EVQLQASGGGFVQPGGSLRLSCAASGYTSRSSAMGWFRQAPGKEREFVSAISDLTGYPYYYADSVKGRFTISRDNSKNTVYLQMNSLRAEDTATYYCAAYQDDKWTYGSQHGKYWGQGTQVTVSS
no binding	173000	0.000216	B5 nanobody (anti-FGFR4 sdAb, NaLi-H1 library) (VHH, Recombinant nanobody of about 17 kDa; also called B5 sdAb; not shown: C-terminal Myc/6xHis-tag and an additional cysteine) VHH: EVQLQASGGGFVQPGGSLRLSCAASGRTSWLTTMGWFRQAPGKEREFVSAISSFSSKQGYYADSVKGRFTISRDNSKNTVYLQMNSLRAEDTATYYCAYASYPRHQGNGRWKDFVEYWGQGTQVTVSS
no binding	66700	36.8	A8 nanobody (anti-FGFR4 sdAb, NaLi-H1 library) (VHH, also called A8 sdAb; not shown: C-terminal Myc/6xHis-tag and an additional cysteine) VHH: EVQLQASGGGFVQPGGSLRLSCAASGRTYSRDTMGWFRQAPGKEREFVSAISSRHSHTTYYADSVKGRFTISRDNSKNTVYLQMNSLRAEDTATYYCAEWDVFDMHYALPPMWYWGQGTQVTVSS
